# Assay results as given in the nanobody polyreactivity screen of Harvey et al. (2022).
# Assay: yeast display, Sf9 membrane polyspecificity reagent, FACS + sequencing; frameworks hold sequencing errors
# Outline: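 Galactose induction of a Saccharomyces cerevisiae BJ5465 synthetic nanobody display library ran 36–48 hours. The cells were then stained for 1 hour at 4 °C with 10% biotinylated, detergent-solubilized Sf9 membrane reagent, pulled down on streptavidin microbeads and FACS-sorted into low and high (top ~1%) gates on expression and reagent-binding fluorescence. Labels for polyreactivity follow the gate of origin.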
row,Sequence,polyreactivity (PSR sort gate)
1,QLQLVESGGGLFQAGGSLRISCAPSGRIFKLNAMGWYRQAPGKEMELVAAINSGTRTYYADSVKGRFTISSYNAKNTVYLQLNSLKPEDTAVYYCAAEGVWWYSRYDYWGQGTQVTVSS,high polyreactivity
2,QVQLVESGGGLVQAGGSLRLSCAASGFIFYGNAMAWSRQAPGKEREFVAAINGRGVSTYYADSVKGRFTISRDNAKNSDYLQMNSLKPEDTAVYYCNKVYWGRGPLEYWGQGTQVTVSS,high polyreactivity
3,QVQLVESGGGLVQAGGSLRLSCAASGRIFDGNAMGWYRQAPGKERELVATITRGGRTNYADSVKGRFTISRDNAKNTVYLQMNTLKPEDTAVYYCATSYPGYAYNQAWYPYGYWGQGTQVTVSS,low polyreactivity
4,QVQLEESGGGLVQAGGSLRLSCAASGRTFAFNAMGWYRPAPGKVRELVAVITSRTTRTYYADSVKGRFTISRDNAKNTVYLQMNSLKPEDTAVYYCAAGFRRQSIRFDYWGQGTQVTVSS,high polyreactivity
5,QVQHVESGGGIVQAGGSLRLSCAASGITFSRKAMGRYRQATGKERELVATITSGGSTNYADSVKGRFTISRDNAKNTVYLQMNRLKPEDTAVYYCNAVWNTFISGRSYDYWGQGTQVTVSS,low polyreactivity
6,QVQLVESGGGLVQAGGSLRLTCAASGNTFYPYAMGWYRQGPGKERELVAAITSSGGSTYYADSVKGRFTISRDNANNTVYLQMNSLKPEDTAVYYCAADPDWYSPFKYVYWGQGTQVTVSS,low polyreactivity
7,QVQLVESGGGLVQAGGSLRLSCAASGSIFGANAMGWYRKAPGKERELVAAISTRGGRTYYADSVKGRFTISRDNAKNTVYLQMNSLKPEDTAVYYCATSGGRPYKYEYWGQGTQVTVSS,high polyreactivity
8,QVQLVESGGGLVQEGGSLRLNCAASGSTFWGNAMGWYRQPPGKDRELVAAISTSDTSTYYADSVKGRFTISRDNAKNTVYLQMNSLKPEDTAVYFCAAEWYYGEKYDYWGQGTQVTVSS,low polyreactivity
9,QVQLVESGGGLVQAGGSLRLSCAASGRNFPSYAMGWYRQAPGKERELVAAISFSGASTYYADSVKGRFTFSRDNAKNTVYLQMNSLKPEDTAVYYCNASGVGADVQWSWEEGDYWGQGTQVTVSS,low polyreactivity
10,QVQLVESGAGLVQAGGSLRLSCAASGYTFSPNDMGWYRQAPGKERELVAAITSSVGSTYYADSVKGRFTISRDNAKNTVYLQMNSLKPEDTAVYYCNKQDSSYYISGGGDYDYWGQGTQVTVSS,low polyreactivity
11,QVQLVESGGGLVQAGGSLRLSCAASGLIFRYYAMGWYRQAPGKERELVAAISYSGGRTYYADSVKGRFTISRDNAKNTVYLQMNSLKPEDTAVYYCAAVDRRGYRYALDYWGQGTQVTVSS,high polyreactivity
12,QVQLVESGGGLVQAGGSLRLSCDASGRIFYNYAMGWYRQAPGTERELVAAISGSGGSTYYADSVKGRFTISRDNAKNTVYLQMNSLKPEDTAVYDCSTFGPQYYSRNFDYWGQGTLVTVSS,low polyreactivity
13,QVQLVESGGGLVQAGGSLRLSCAASGRIFTTNAMGWYRQAPGKERELVAAITYSGGTTYYADSVKGRFTISRDNAKNTVYLQMNSLKPEDTAVYYCAADVKFSTPYDYWGQGTQVTVSS,low polyreactivity
14,QVQLVESGGGLVQSGRSLRLSCAASGSISVWYVMGWYRPAPGKEMELVAAITRSGGSTFYAYSVKGRFTISRDNAKNTVYLQMNSLKPEDTAVYYCAADGGVAWGYGYWGQGTQVTVSS,low polyreactivity
15,QVQLVESGGGLVQAGGSLRLSCAASGIIFDAYGMGWYRQAPGKEMELVAAINTVGSTNYADSVKGRFTISRDNAKNTVYLQMNSLKPEDTAVYYCAADSYFYDPYDYWGQGTQVTVSS,low polyreactivity
16,QVQLVESGGGLVQAGGSLSLSCAASGSISYRYAMGWYRQAPGKERELVAAITSGGRTYYADSVKGRFTISRDNAKYTVYLQMNSLKPEDTAVYYCAKSKPVGPYYYWGQGTQVTVSS,high polyreactivity
